Residue numbers refer to the chain shown, from its start.
Assays:
[1] = target: T1, gp7 (Bacillus thuringiensis phage GIL01) (UniProt Q7WSG2); assay: EMSA; conditions: SPR: 25 mM Tris-HCl pH 7.4, 140 mM NaCl, 5 mM EDTA, 2 mM DTT, 0.1 mg/ml BSA, 0.005% P20, 25 C; EMSA and footprinting buffers as in cited work
T1 sequence: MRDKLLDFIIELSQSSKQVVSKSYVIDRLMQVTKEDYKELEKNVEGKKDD

gp6 K38A = target: T2, gp6 K38A (Bacillus thuringiensis phage GIL01, UniProt Q5ILC6 1-66, K38A); assay: SPR; 2.34-150 nM; SPR: 25 mM Tris-HCl pH 7.4, 140 mM NaCl, 5 mM EDTA, 2 mM DTT, 0.1 mg/ml BSA, 0.005% P20, 25 C; EMSA and footprinting buffers as in cited work; conditions: protein: recombinant; tags: N-terminal His6 + thrombin site; chain copies: 2; label: 3'-biotin-TEG on S1 capture oligo; 36 bp duplex, 5' overhang 15 nt annealed to immobilized S1 (S39)
T2 sequence: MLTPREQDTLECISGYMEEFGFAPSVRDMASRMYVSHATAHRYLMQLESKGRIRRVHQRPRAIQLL

gp6 [2] = target: T3, gp6 (Bacillus thuringiensis phage GIL01, UniProt Q5ILC6); assay: SPR; gp6 2.34-150 nM (Fig. 6D); SPR: 25 mM Tris-HCl pH 7.4, 140 mM NaCl, 5 mM EDTA, 2 mM DTT, 0.1 mg/ml BSA, 0.005% P20, 25 C; EMSA and footprinting buffers as in cited work; conditions: protein: recombinant; tags: N-terminal His6 + thrombin site; chain copies: 2; label: 3'-biotin-TEG on S1 capture oligo; 36 bp duplex, 5' overhang 15 nt annealed to immobilized S1 (S39)
T3 sequence: T2 sequence with A38K

gp6 [3] = target: T3, gp6; assay: SPR; SPR: 25 mM Tris-HCl pH 7.4, 140 mM NaCl, 5 mM EDTA, 2 mM DTT, 0.1 mg/ml BSA, 0.005% P20, 25 C; EMSA and footprinting buffers as in cited work; conditions: protein: recombinant, tags: N-terminal His6 + thrombin site, chain copies: 2, label: 3'-biotin-TEG on S1 capture oligo, 5' overhang 15 nt annealed to immobilized S1 (S39)

TGTTGAACAAGGAATAGTAGAAAAGGACTAGCAAAGTTGCTAGTCTTTTTTATTTGTCCAAAATGACACACGTGTGACGTTATGCGGAACACTCGTTCGTATTATAGTATACATATAGCGAACAAACATTCGATAAGGAGTGTGACAAAGTGGATGCTTTAACGGAACTAATCATAGCTAACAATAAAGTGGAAATGCTT (double strand) [P3 fragment with dinBox2 and dinBox3 (EMSA7/EMSA10)]
binding [1]: no binding

B1: B23_Swt (gp6 site) (dsDNA)
DNA 1: GTTACTACTCGAGCGATTTGTCCAAAATGACACACGTGTGACGTTATGCGG
DNA 2: CCGCATAACGTCACACGTGTGTCATTTTGGACAAAT
binding result (gp6 K38A): no binding
binding result (gp6 [2]): binds

B2: B23_Smns (triple mutant gp6 site) (dsDNA)
DNA 1: B1 DNA 1 with G29T, A32C, G38A
DNA 2: B1 DNA 2 with C14T, T20G, C23A
binding result (gp6 [3]; 36 bp duplex): no binding

B3: B23_Lwt (-35, dinBox2, dinBox3) (dsDNA)
DNA 1: GTTACTACTCGAGCGATTTGTCCAAAATGACACACGTGTGACGTTATGCGGAACACTCGTTCGTATTATAGTATACATATAGCGAACAAACATTCGATAAGGAG
DNA 2: CTCCTTATCGAATGTTTGTTCGCTATATGTATACTATAATACGAACGAGTGTTCCGCATAACGTCACACGTGTGTCATTTTGGACAAAT
binding result (gp6 [3]; 89 bp duplex): binds

From paper PMC6182141, “Lytic gene expression in the temperate bacteriophage GIL01 is activated by a phage-encoded LexA homologue”
